According to publication PMC7367449:

Tests used:
[1] = molecular target: recombinant hCD134 with C-terminal human FcHis-tag replacing the transmembrane domain (hCD134-hFcHis) (human) (UniProt P43489); assay: SPR; Biacore T200, CM5 chip; hCD134-hFcHis captured via immobilised Protein A; soluble tetramer injected; multi-cycle kinetics, 1:1 binding fit
[2] = molecular target: recombinant hCD134 with C-terminal human FcHis-tag replacing the transmembrane domain (hCD134-hFcHis) (human) (UniProt P43489); assay: SPR; Biacore T200, CM5 chip; hCD134-hFcHis captured via immobilised Protein A; soluble tetramer injected; steady-state affinity analysis of the response units at equilibrium
[3] = molecular target: anti-gH Mab OHV-3 (murine); assay: SPR; Biacore T200, CM5 chip; Mab captured via immobilised Protein A/Protein L; soluble tetramer injected at 5, 10, 20, 40 and 80 nM; single-cycle kinetics
Chain of anti-gH Mab OHV-3 (murine) (heavy, as listed by the source, chain 1 of 2): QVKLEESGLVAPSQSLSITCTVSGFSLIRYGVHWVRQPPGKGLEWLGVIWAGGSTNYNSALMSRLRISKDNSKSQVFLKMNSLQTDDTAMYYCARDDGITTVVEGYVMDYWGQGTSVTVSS
Chain of anti-gH Mab OHV-3 (murine) (light, as listed by the source, chain 2 of 2): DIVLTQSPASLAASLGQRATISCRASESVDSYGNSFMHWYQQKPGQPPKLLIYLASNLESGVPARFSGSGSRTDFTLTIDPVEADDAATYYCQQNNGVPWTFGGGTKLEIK

Chain of UniProt P43489 (P43489 29-214): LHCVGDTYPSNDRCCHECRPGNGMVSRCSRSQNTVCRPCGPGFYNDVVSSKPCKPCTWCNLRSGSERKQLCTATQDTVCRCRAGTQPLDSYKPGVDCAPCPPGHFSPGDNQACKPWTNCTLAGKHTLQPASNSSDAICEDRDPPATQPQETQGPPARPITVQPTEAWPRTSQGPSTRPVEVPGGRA

Q: Which Kd [1] does the source give for “soluble HHV-6B gH/gL/gQ1/gQ2 complex (HHV-6B tetramer)” here?
A: Its Kd is 0.014 µM.

Q: What about the koff [1] of the same substance?
A: The koff was 0.0158 s⁻¹.

Q: What about the kon [1] of the same substance?
A: Its kon is 1.1e+06 M⁻¹ s⁻¹.

Q: And the Kd [2]?
A: The Kd was 0.018 µM.

Q: What about the Kd [3] of the same substance?
A: The Kd was 0.0027 µM.

Q: What about the koff [3] of the same substance?
A: The koff was 0.00035 s⁻¹.

Q: And the kon [3]?
A: Its kon is 130000 M⁻¹ s⁻¹.
